Bounds are passed on as bounds.

What all share (assay type): biochemical
In test [1] the target is T1, Granulocytic Elastase (human) (Homo sapiens, UniProt P08246).
T1 construct: purchased Elastin Products Company, Inc
T1 sequence (P08246 30-267): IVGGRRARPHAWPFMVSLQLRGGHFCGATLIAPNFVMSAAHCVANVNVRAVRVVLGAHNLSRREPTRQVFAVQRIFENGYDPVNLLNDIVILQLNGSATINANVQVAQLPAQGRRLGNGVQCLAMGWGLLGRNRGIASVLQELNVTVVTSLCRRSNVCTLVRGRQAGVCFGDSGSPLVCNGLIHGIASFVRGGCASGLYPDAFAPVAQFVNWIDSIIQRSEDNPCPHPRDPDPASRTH
Kind of test: Enzyme inhibition assay, leukocyte (granulocytic) elastase, release of p-nitroaniline from MeOSuc-Ala-Ala-Pro-Val-pNA. The following applies: 120 ng enzyme/assay. Here is the method:
(§1) Human leukocyte elastase (HLE) and porcine pancreas elastase (PPE) were obtained from Elastin Products Company, Inc. P.O. Box 147, Pacific, Miss. 63069/USA.
(§2) The substrates: MeOSuc-Ala-Ala-Pro-Val-pNA (HLE), Ac-Ala-Ala-Pro-Ala-pNA and Suc-Ala-Ala-Ala-pNA (PPE and Suc-Ala-Ala-Pro-Phe-pNA (CHT) were obtained from Bachem, Bubendorf/Switzerland.
(§3) Culture filtrates were treated as follows: 10 μl TWEEN 80 solution (0.5%) and 50 μl perchloric acid (70%) were added to 1 ml of culture filtrate. After 20 min, these samples were centrifuged, and the clear supernatants were neutralized by the addition of 225 μl saturated solution of tris base. Aliquots of these solutions were taken to determine inhibitory activities.
(§4) Generally, the samples were diluted with the appropriate buffer volume, and the enzyme was added. After the preincubation time, substrate was added (substrates are dissolved in DMSO in a concentration of 0.1M and diluted with buffer to give the concentration of the stock solution). The release of p-nitroaniline from the substrates was measured at 405 nm either continuously or after quenching the reaction by adding acetic acid. 100%- values were determined by running samples where inhibitors were omitted. Percentage inhibition was calculated using the formula: [formula] […]

Test [2] has as its target T2, Pancreatic Elastase (porcine) (Sus scrofa, UniProt P00772).
T2 construct: purchased Elastin Products Company, Inc
The experiment in a line: Enzyme inhibition assay, pancreatic elastase, release of p-nitroaniline from Ac-Ala-Ala-Pro-Ala-pNA. Particulars: 500 ng enzyme/assay. Here is the method: as §1, §2, §3, §4

The target in another test is T3, α-Chymotrypsin (bovine) (Bos taurus, UniProt P00766).
T3 construct: purchased E. Merck, Darmstadt
Kind of test: Enzyme inhibition assay, α-chymotrypsin, release of p-nitroaniline from Suc-Ala-Ala-Pro-Phe-pNA. The following applies: 50 ng enzyme/assay. As to the method: Bovine α-chymotrypsin (CHT) was obtained from E. Merck, Darmstadt.
as §2, §3, §4

T2 sequence (P00772 27-266): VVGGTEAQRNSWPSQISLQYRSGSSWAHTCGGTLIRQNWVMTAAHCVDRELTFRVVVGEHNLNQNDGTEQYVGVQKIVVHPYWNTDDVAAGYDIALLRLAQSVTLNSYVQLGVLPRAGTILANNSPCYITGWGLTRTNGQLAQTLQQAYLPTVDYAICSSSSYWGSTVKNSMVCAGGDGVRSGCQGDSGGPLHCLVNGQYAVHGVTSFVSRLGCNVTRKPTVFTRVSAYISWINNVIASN

Take “Asn^-13 -Ala^-12 -Glu^-11 -Thr^-10 -Ala^-9 -His^-8 -Lys^-7 -Ser^-6 -Asn^-5 -Glu^-4 -Val^-3 -Thr^-2 -Met^-1 -Leu^18 -Glu^19 -Arg^21 -Ala^32 -PSTI ({Asn-Ala-Glu-Thr-Ala-H2N}-KSNEVTMDSLGREAKCYNELNGCTLEYRPVCGTDGNTYANECVLCFENRKRQTSILIQKSGPC; ends and bridges not checked; UniProt P00995 24-79, looked up, variant K18L I19E D21R P32A) [PSTI-4A [Minifusion]]”: in test [1], the “amount of inhibitor giving 50% inhibition, Granulocytic Elastase (human)” value turned out to be 15 ng. In addition, the “amount of inhibitor giving 50% inhibition, Pancreatic Elastase (porcine)” value in test [2] was determined as 68 ng. Moreover, the “amount of inhibitor giving 50% inhibition, α-Chymotrypsin (bovine)” value with α-Chymotrypsin (bovine) amounted to 6 ng.
The corresponding values for “Leu^18 -Ala^32 -PSTI (DSLGREAKCYNELNGCTLIYDPVCGTDGNTYANECVLCFENRKRQTSILIQKSGPC; UniProt P00995 24-79, looked up, variant K18L P32A) [PSTI-1A, PSTI variant from cyanogen bromide cleavage of the PSTI-1A minifusion protein]” are 18 ng, 1200 ng and 100 ng.
For “Leu^18 -Glu^19 -Arg^21 -Ala^32 -PSTI (DSLGREAKCYNELNGCTLEYRPVCGTDGNTYANECVLCFENRKRQTSILIQKSGPC; UniProt P00995 24-79, looked up, variant K18L I19E D21R P32A) [PSTI-4A, PSTI variant obtained from the minifusion protein by BrCN-cleavage]” the same measures were 17 ng, 75 ng and 7 ng.
In the case of “Met^-1 -Leu^18 -Glu^19 -Arg^21 -Ala^32 -PSTI (DSLGREAKCYNELNGCTLEYRPVCGTDGNTYANECVLCFENRKRQTSILIQKSGPC; N-terminal Met; UniProt P00995 24-79, looked up, variant K18L I19E D21R P32A) [Met-PSTI-4A]”, the “amount of inhibitor giving 50% inhibition, Granulocytic Elastase (human)” value in test [1] is 16 ng. Moreover, the “amount of inhibitor giving 50% inhibition, Pancreatic Elastase (porcine)” value in test [2] was 73 ng. In the test with α-Chymotrypsin (bovine), the “amount of inhibitor giving 50% inhibition, α-Chymotrypsin (bovine)” value amounted to 8 ng.
As to “Tyr^18 -Glu^19 -Arg^21 -PSTI (DSLGREAKCYNELNGCTYEYRPVCGTDGNTYPNECVLCFENRKRQTSILIQKSGPC; UniProt P00995 24-79, looked up, variant K18Y I19E D21R) [PSTI-3P]”, in test [1], the “amount of inhibitor giving 50% inhibition, Granulocytic Elastase (human)” value is greater than 5000 ng. The “amount of inhibitor giving 50% inhibition, α-Chymotrypsin (bovine)” value with α-Chymotrypsin (bovine) is given as 7 ng.
Consider “Val^18 -Glu^19 -Arg^21 -PSTI (DSLGREAKCYNELNGCTVEYRPVCGTDGNTYPNECVLCFENRKRQTSILIQKSGPC; UniProt P00995 24-79, looked up, variant K18V I19E D21R) [PSTI-5P]”, for which the “amount of inhibitor giving 50% inhibition, Granulocytic Elastase (human)” value in test [1] worked out at 15 ng. Besides, the “amount of inhibitor giving 50% inhibition, Pancreatic Elastase (porcine)” value in test [2] was found to be 70 ng. Further, in the test with α-Chymotrypsin (bovine), the “amount of inhibitor giving 50% inhibition, α-Chymotrypsin (bovine)” value is 100 ng.

The values above are taken from US5126322A, “Pancreatic secretory tryspin inhibitor and variants thereof produced by a recombinant host therefore and pharmaceutical use thereof” (Bayer Aktiengesellschaft, priority 1987, dated 1992).
